T1: VHA-c"1 (V-ATPase proteolipid subunit c", isoform 1) fused to CFP or YFP (A. thaliana, UniProt Q9SZY7 1-180)
T1 construct: VHA-c"1, A. thaliana, At4g32530, open reading frame without the stop codon; One molecule for the CFP and the YFP fusion; also called VHA-c"-CFP; VHA-c"-YFP; source: A. thaliana mesophyll protoplasts, transiently transfected, in living cells; not shown: CFP or YFP, C-terminal, kept
T1 sequence (looked up): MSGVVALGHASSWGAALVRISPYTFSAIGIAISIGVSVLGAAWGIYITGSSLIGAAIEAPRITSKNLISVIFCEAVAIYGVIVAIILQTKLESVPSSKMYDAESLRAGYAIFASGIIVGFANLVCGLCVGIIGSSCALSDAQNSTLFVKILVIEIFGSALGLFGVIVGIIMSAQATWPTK

B1: VHA-c"_(trunc) (third and fourth helices of VHA-c"1) fused to CFP (domain or fragment, A. thaliana, UniProt Q9SZY7 88-180, looked up)
chain: QTKLESVPSSKMYDAESLRAGYAIFASGIIVGFANLVCGLCVGIIGSSCALSDAQNSTLFVKILVIEIFGSALGLFGVIVGIIMSAQATWPTK
notes: VHA-c"1 aa 88-180 (helices 3 and 4), A. thaliana; Intermediate construct of the hybrid in vector 35S-CFP-C; fused to the C-terminus of the fluorescent protein; also called truncated VHA-c"; VHA-c"1_(trunc); source: A. thaliana mesophyll protoplasts, transiently transfected, in living cells; not shown: CFP, N-terminal, kept
B2: VHA-c3 (V-ATPase proteolipid subunit c, isoform 3) fused to CFP or YFP (natural protein, A. thaliana, UniProt P0DH93 1-164, looked up)
chain: MSTFSGDETAPFFGFLGAAAALVFSCMGAAYGTAKSGVGVASMGVMRPELVMKSIVPVVMAGVLGIYGLIIAVIISTGINPKAKSYYLFDGYAHLSSGLACGLAGLSAGMAIGIVGDAGVRANAQQPKLFVGMILILIFAEALALYGLIVGIILSSRAGQSRAE
notes: VHA-c3, A. thaliana, At4g38920, open reading frame without the stop codon; One molecule for the CFP and the YFP fusion; vectors 35S-CFP-NosT and 35S-YFP-NosT; List of constructs in Additional file 4; also called VHA-c-CFP; VHA-c-YFP; source: A. thaliana mesophyll protoplasts, transiently transfected, in living cells; not shown: CFP or YFP, C-terminal, kept
B3: VHA-e2 (V-ATPase subunit e, isoform 2) fused to CFP or YFP (natural protein, A. thaliana, UniProt Q9SZ13 1-70, looked up)
chain: MAFVVTSLIFAVVGIIASICTRICFNKGPSTNLLHLTLVITATVCCWMMWAIVYIAQMNPLIVPILSEVE
notes: VHA-e2, A. thaliana, At4g26710, open reading frame without the stop codon; One molecule for the CFP and the YFP fusion; also called VHA-e isoform 2; VHA-e2-CFP; source: A. thaliana mesophyll protoplasts, transiently transfected, in living cells; not shown: CFP or YFP, C-terminal, kept
B4: VHA-c_(trunc) (third and fourth helices of VHA-c3) fused to CFP (domain or fragment, A. thaliana, UniProt P0DH93 80-164, looked up)
chain: NPKAKSYYLFDGYAHLSSGLACGLAGLSAGMAIGIVGDAGVRANAQQPKLFVGMILILIFAEALALYGLIVGIILSSRAGQSRAE
notes: VHA-c aa 80-164 (helices 3 and 4 of VHA-c3), A. thaliana; Intermediate construct of the hybrid in vector 35S-CFP-C; also called truncated VHA-c; truncated VHA-c-CFP; source: A. thaliana mesophyll protoplasts, transiently transfected, in living cells; not shown: CFP, C-terminal, kept
B5: VHA-e1 (V-ATPase subunit e, isoform 1) fused to CFP or YFP (natural protein, A. thaliana, UniProt Q9FLN5 1-70, looked up)
chain: MGFLITTLIFVVVGIIASLCVRICCNRGPSTNLLHLTLVITATVCCWMMWAIVYIAQMNPLIVPILSETE
notes: VHA-e1, A. thaliana, At5g55290, open reading frame without the stop codon; One molecule for the CFP and the YFP fusion; also called VHA-e isoform 1; AtVHA-e1; source: A. thaliana mesophyll protoplasts, transiently transfected, in living cells; not shown: CFP or YFP, C-terminal, kept

Holding throughout (experiment): FRET or BRET; in vivo FRET by sensitized acceptor emission (confocal laser scanning microscopy) in co-transfected A. thaliana mesophyll protoplasts; CFP fusion as donor, YFP fusion as acceptor; a FRET value of 8-10% is taken as background
(In general: In BRET a luciferase serves as donor, and the signal depends on an acceptor being close.)

Series [1] concerns the target VHA-a-YFP (Mesembryanthemum crystallinum V-ATPase subunit a fused to YFP) (Mesembryanthemum crystallinum).
Series [2] addresses T1, VHA-c"1 (V-ATPase proteolipid subunit …). The note with it: partners not purified.
Series [3] concerns the molecule itself.
Series [4] concerns the target VHA-a-YFP (Mesembryanthemum crystallinum V-ATPase subunit a fused to YFP) (Mesembryanthemum crystallinum). The source holds these as a separate data set.
Series [5] has as its target B2. The note with it: partners not purified.

Read-outs that look alike come from different tables or passages of the source.

For the molecule “VHA-A-CFP (V-ATPase catalytic subunit A fused to CFP) (from UniProt O23654 1-623) (natural protein)”, in series [1], the FRET efficiency turned out to be 44.8.
In the case of B1, the FRET efficiency in series [2] worked out at 14.8%.
Consider B2, for which the FRET efficiency in series [3] is 20.8%.
Consider B3, for which the FRET efficiency in series [4] was 20%; in series [5], ~20%; in series [2] it was 20%.
On to B4, for which the results for the FRET efficiency in series [4], in series [5] and in series [2] were 40.2%, 40.3% and 46.2%, respectively.
Consider B5, for which the FRET efficiency in series [4] was 20%; in series [5], ~20%.

For the origin of these results see PMC2424043, “Organelle-specific isoenzymes of plant V-ATPase as revealed by in vivo-FRET analysis” (BMC Cell Biology, 2008).
